# According to patent US20100285583A1, “COMPOUNDS AND METHODS FOR INHIBITING PLATELET AGGREGATION” (priority 2009, published 2010):
# B1: N-PTB: N-terminal phosphotyrosine binding domain (residues 1-241) of human Disabled-2 (Dab2), expressed as GST-fusion in E. coli (protein)
# chain: MSNEVETSATNGQPDQQAAPKAPSKKEKKKGPEKTDEYLLARFKGDGVKYKAKLIGIDDVPDARGDKMSQDSMMKLKGMAARGRSQGQHKQRIWVNISLSGIKIIDEKTGVIEHEHPVNKISFIARDVTDNRAFGYVCGGEGQHQFFAIKTGQQAEPLVVDLKDLFQVIYNVKKKEEEKKKIEEASKAVENGSEALMILDDQTNKLKSGVDQMDLFGDMSTPPDLNSPTESKDILLVDLNS
# What was measured:
# [1] = system: platelet and leukocyte mixtures; test: Platelet-leukocyte aggregation assay (flow cytometry, CD42b on leukocytes); assay type: cell-based, human; settings: ADP 30 μM, sulfatide liposomes
# Method: Whole blood was collected as indicated above and centrifuged at 200 g to separate the blood from plasma and red blood cell fractions. Plasma and buffy coat layer were carefully removed and diluted 1:1 with PBS. The dilution was then layered onto a Ficoll Plus gradient and spun at 200 g for 20 min. The enriched platelet and leukocyte layer was removed, diluted with PBS, centrifuged and the pellet resuspended in Tyrode's Albumin buffer to a concentration of ˜3×10^5 platelets/μL and 3×10^3 leukocytes/μL. Isolated platelet-leukocyte mixtures were remained unactivated or activated with ADP (30 μM). Both unactivated and activated platelets were incubated for 10 min at 23° C. with liposomes (50 μg/mL) either without (liposomes control) or with sulfatides, and N-PTB constructs (1 μM). Reactions were fixed with 1% formalin and incubated with APC-labeled CD42b (Biolegend) and FITC-labeled CD45 (Biolegend) antibodies. Bound antibodies were quantified using a FacsAria flow cytometer.
# Platelet P-selectin mediates platelet-leukocyte interactions through binding of leukocyte PSGL-1 (Merten 2005). […] Platelet binding of leukocytes was quantified through the fluorescence of allophycocyanin (APC) labeled anti-human CD42b (platelet marker) detected on leukocytes. The fluorescence was detected using flow cytometry analysis of platelet-leukocyte mixtures.
# [2] = system: Human washed platelets; test: Platelet adhesion assay; assay type: cell-based; settings: 1.9 μM, TRAP
# Method: Human washed platelets were incubated with BSA, Dab2 PTB or Dab2 PTB^4M (1.9 μM each) for 5 min at room temperature in the presence of 0.25 g/L fibrinogen. Aggregation was initiated by the addition of 10 μM TRAP, and reactions were incubated 20 min at 37° C. Samples were fixed with 3.7% formaldehyde in PBS, stained with Wright stain, and photographed. Wright stain was eluted with 20% ethanol, and absorbance was quantified at 415 nm.
# [3] = Competition SPR, PtdIns(4,5)P2 pre-incubated protein on sulfatide liposomes; settings: 5 μM protein pre-incubated with increasing PtdIns(4,5)P2; read-out: IC50 of PtdIns(4,5)P2 competition for sulfatide binding
# Method: Surface plasmon resonance (SPR) binding experiments were performed on a BIAcore X instrument using L1 sensorchips coated with ˜0.5 mM of mixed sulfatides or PtdIns(4,5)P2 size calibrated liposomes. N-PTB domain or its mutants binding experiments were performed in a degassed solution containing 10 mM Tris-HCI (pH 7.4) and 150 mM NaCl. This buffer was used during equilibration, association and dissociation phases. Proteins were added to this buffer at the indicated concentrations. Regeneration of the phospholipid bilayer after dissociation phase was carried out using 20 mM NaOH. For competition SPR, increasing molar amounts of dioctanoyl PtdIns(4,5)P2 were preincubated with 5 μM N-PTB for 20 min at room temperature. The entire reaction was then exposed to an L1 sensorchip containing immobilized sulfatide liposomes (˜0.5 mM).
# [4] = Protein-lipid overlay assay, sulfatides; assay type: binding; settings: Sphingolipid strips, GST-Dab2 PTB
# Method: Membrane strips (SphingoStrips™) spotted with 100 pmol of sphingolipids were purchased from Echelon Research Laboratories. Membrane strips were incubated with 0.1 μg/ml of the Dab2 PTB domain or its mutants in 20 mM Tris-HCl (pH 8.0), 150 mM NaCl, 0.1% Tween-20 and 3% fatty acid-free bovine serum albumin overnight at 4° C. Following four washes with the same buffer, proteins bound to the membrane strips were probed with rabbit anti-GST antibody (Santa Cruz Biotech). Donkey anti rabbit-horse radish peroxidase (HRP) antibody was obtained from GE Healthcare. Detection was carried out using ECL reagent (Pierce). Also, lipid strips were prepared by spotting 1 μl of either sulfatides or PtdIns(4,5)P2 dissolved in chloroform:methanol:water (1:2:0.8 and 65:35:8, respectively) onto Hybond-C extra membranes (GE Healthcare) and protein binding was monitored as described above. Bound protein was quantified using the AlphaImager program and binding was calculated as a percentage of GST-PTB binding to 100 pmoles of spotted lipid.
# [5] = system: platelet surface αIIbβ3 integrin; test: Flow cytometry, platelet surface αIIbβ3 integrin; assay type: cell-based, human; settings: ADP 30 μM, sulfatide liposomes 50 μg/mL
# Method: Washed platelets (2.5×10^5 platelets/μL) were kept unactivated or either activated with ADP (30 μM) or TRAP (10 μM). Both unactivated and activated platelets were incubated for 10 min at 23° C. with liposomes (50 μg/mL) either without (liposomes control) or with sulfatides, and N-PTB constructs (1 μM). Reactions were fixed with 1% formalin and incubated with PE- labeled CD62p anti-P-selectin (BioLegend) or FITC-labeled PAC-1 anti-integrin receptor (BD Transduction) antibodies. Bound antibodies were quantified using a FacsAria flow cytometer.
# Once present, P-selectin is able to interact with sulfatides which triggers an internal phosphorylation pathway thought to be mediated by p38 (FIG. 12A) (Merten 2005). This cascade results in further de-granulation and an increase in surface P-selectin (Merten 2005). To monitor the de-granulation of platelets, two activation markers were evaluated using fluorescent antibodies specific for P-selectin and the αIIbβ3 integrin. Marker surface expression was quantified using fluorescence-activated cell sorting (FACS) analysis, and measuring the median fluorescent signal of 10,000 platelets. The median signal was used as our reference to quantify the data set as median values are less affected by the wide range of platelet signals and is therefore more representative of the population. […]
molecule,measurement,setting,value
B1,inhibition of platelet-leukocyte binding,[1],decreased platelet binding to leukocytes
same,inhibition of platelet-leukocyte binding,[1]; listed as N-PTB^4M,no inhibition of platelet-leukocyte binding
same,effect on platelet adhesion to fibrinogen,[2],did not significantly affect platelet adhesion to fibrinogen
same,IC50,[3],~2 µM
same,binding to sphingolipids,[4],preferentially bound to sulfatides
same,inhibition of sulfatide induced expression of αIIbβ3 integrin,[5],inhibition of sulfatide induced expression
same,inhibition of sulfatide induced expression of αIIbβ3 integrin,[5]; listed as N-PTB^4M,no inhibition
